Test results as given in patent publication US12540945B2, “Probe and method for identifying host cell protein impurities” (Regeneron Pharmaceuticals, Inc., priority 2021, dated 2026).

Experiment: Hydrolysis of polysorbate 80 by spiked LAL, oleic acid release by LC-MS
Format: biochemical
Settings: 5 ppm LAL, 0.1% PS80, pH 5.5, after 2 days of incubation

B1: LAL: lysosomal acid lipase; recombinant CHO LAL generated in-house, spiked into PS80 samples (protein, UniProt P38571 77-399, looked up)
Lysosomal acid …: GPKPVVFLQHGLLADSSNWVTNLANSSLGFILADAGFDVWMGNSRGNTWSRKHKTLSVSQDEFWAFSYDEMAKYDLPASINFILNKTGQEQVYYVGHSQGTTIGFIAFSQIPELAKRIKMFFALGPVASVAFCTSPMAKLGRLPDHLIKDLFGDKEFLPQSAFLKWLGTHVCTHVILKELCGNLCFLLCGFNERNLNMSRVDVYTTHSPAGTSVQNMLHWSQAVKFQKFQAFDWGSSAKNYFHYNQSYPPTYNVKDMLVPTAVWSGGHDWLADVYDVNILLTQITNLVFHESIPEWEHLDFIWGLDAPWRLYNKIINLMRKYQ
modifications: recombinant, CHO-expressed
notes: lysosomal acid lipase; recombinant CHO LAL generated in-house, spiked into PS80 samples
oleic acid released (hydrolysis of PS80): 3 µg/mL
